Data reported in EP1876240B1.

Experiments:
[1] = target: human GPVI extracellular region-human Fc fusion protein (hGPVI-hFc) (human); assay: SPR (BIACORE3000) as in Example 5
[2] = target: human GPVI extracellular region-human Fc fusion protein (hGPVI-hFc) (human); assay: ELISA on immobilised hGPVI-hFc; +++ absorbance more than 2.0
[3] = target: human GPVI extracellular region-human Fc fusion protein (hGPVI-hFc) (human); assay: ELISA on immobilised hGPVI-hFc; ++ absorbance 1.0 to 2.0
[4] = target: human GPVI extracellular region-human Fc fusion protein (hGPVI-hFc) (human); assay: SPR (BIACORE 3000), hGPVI-hFc on CM5 chip, 0-800 nM, 1:1 binding fit
[5] = target: rat GPVI-human Fc (rGPVI-hFc) (rat; mouse); assay: ELISA on immobilized antigen; control
[6] = target: human GPVI extracellular region-human Fc fusion protein (hGPVI-hFc) (human); assay: ELISA on immobilised hGPVI-hFc; + absorbance 0.5 to 1.0

human GPVI extracellular region-human Fc fusion protein (hGPVI-hFc) (human), sequence (chain, as listed by the source limits assumed): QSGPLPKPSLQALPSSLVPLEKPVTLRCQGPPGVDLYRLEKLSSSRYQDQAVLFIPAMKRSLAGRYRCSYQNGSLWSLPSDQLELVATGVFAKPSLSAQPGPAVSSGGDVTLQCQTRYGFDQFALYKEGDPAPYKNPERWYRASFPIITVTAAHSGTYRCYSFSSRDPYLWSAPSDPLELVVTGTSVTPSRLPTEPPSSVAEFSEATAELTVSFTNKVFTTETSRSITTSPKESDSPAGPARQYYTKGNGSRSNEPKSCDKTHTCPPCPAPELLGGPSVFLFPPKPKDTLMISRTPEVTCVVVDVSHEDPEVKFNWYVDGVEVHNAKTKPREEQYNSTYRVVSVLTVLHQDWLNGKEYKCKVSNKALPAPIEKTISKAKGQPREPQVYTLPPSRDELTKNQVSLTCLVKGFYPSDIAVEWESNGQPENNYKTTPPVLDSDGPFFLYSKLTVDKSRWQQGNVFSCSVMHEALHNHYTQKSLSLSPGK

B1: F1249-18-2 (antibody, V domains shown)
VH: QVQLQQPGAELVKPGASVKLSCKASGYTFTSYWMHWLKQRPGQGLEWIGMIHPNSDITNYNEKFKNKATLTVDKSSSTAYMQLSSLTSEDSAVYYCARSGDYYAMDYWGQGTSVTVSS
VL: SIVMTQTPKFLLVSAGDRVTITCKASQSVSNDVAWYQQKPGQSPKLLIYYASNRYTGVPDRFTGSGYGTDFTFTISTVQAEDLAVYFCQQDYSSPPTFGGGTKLEIKR
For B1, the KD (Relative value) against F1232-37-2 (relative to KD of F1232-37-2) [1] was 0.00103 and the absorbance [2] was > 2 od.

B2: F1245-4-1 (antibody, V domains shown)
VH: QVQLQQPGAELVKPGASVKLSCKASGCTFTSYWMHWVKQRPGQGLEWIGMIHPNSDNTNYNEKFKSKATLTVDKSSSTAYMHLSSLTSEDSAVYYCATHYYDYVDYWGQGTTLTVSS
VL: NIVMTQTPKFLLVSAGDRVTITCKASQSVSNDVAWYQQKPGQSPKLLIYYASNRYTGVPDRFTGSGYGTDFTFTISTVQAEDLAVYFCQQDYSSPWTFGGGTKLEIKR
B2 was tested, and the KD (Relative value) against F1232-37-2 (relative to KD of F1232-37-2) [1] was 0.00427 and the absorbance [2] was > 2 od.

B3: F1245-5-1 (antibody, V domains shown)
VH: QVQLQQPGAELVKPGASVKLSCKASGYTFISYWMHWVKQRPGQGLEWIGMIHPNSGSTHYNEKFKSKATLTVDKSSSTAYMQLSSLTSEDSAVYYCARGGVTPVAYWGQGTLVTVSA
VL: SIVMTQTPKFLLVSAGDRVTITCKASQSVSNDVAWYQQKPGQSPKLLIYYASNRYTGVPDRFTGSGYGTDFTFTISTVQAEDLAVYFCQQDYSSPWTFGGGTKLEIKR
Work on B3 yielded an absorbance [3] of 1 to 2 od and a KD (Relative value) against F1232-37-2 (relative to KD of F1232-37-2) [1] of 1.43.

B4: F1249-5-1 (antibody, V domains shown)
VH: QVQLQQPGAELVKPGASVKLSCKASGYTFTSYWMHWLKQRPGQGLEWIGMIHPNSDITNYNEKFKNKATLTVAKSSSTAYMQLSSLTSEDSAVYYCARLGDYYAMDYWGQGTSVTVSS
VL: SIVMTQTPKFLLVSAGDRVTITCKASQSVSNDVTWYQQKPGQSPKLLIYYASNRYTGVPDRFTGSGYGTDFTFTISTVQAEDLAVYFCQQDYSSPPTFGGGTKLEIKR
For B4, the absorbance [3] was 1 to 2 od and the KD (Relative value) against F1232-37-2 (relative to KD of F1232-37-2) [1] was 0.00285.

B5: F1245-6-2 (antibody, V domains shown)
VH: QVQLQQPGAELVKPGASVKLSCKASGYTFTSYWMHWVKQRPGQGLEWIGMIHPNSGSTNYNEKFKSKATLTVDKSSSTAYMQLSSLTSEDSAVYYCARGGVTPVAYWGQGTLVTVSA
VL: SIVMTQTPKFLLVSAGDRVTITCKASQSVSNDVAWYQQKPGQSPKLLIYYASNRYTGVPYRFTGSGYGTDFTFTISTVQAEDLAVYFCQQDYSSPWTFGGGTKLEIK
Binder B5 has an absorbance [3] of 1 to 2 od and a KD (Relative value) against F1232-37-2 (relative to KD of F1232-37-2) [1] of 0.122.

B6: F1232-37-2 Fab (Fab, V domains shown)
VH: VQLQQSGPELVRPGESVKISCKGSGYTFTDYAIHWVKLSHAKSLEWIGVISIYYDDTNYNQKFKGKATMTVDKSSSTAYLELARLTSEDSAIYYCARRRDSSGPYAMDYWGQGTSVTVSS
VL: DIVLTQSPASLAVSLGQRATISCRASESVDSYGNSFMHWYQQKPGQPPKLLIYRASNLESGIPARFSGSGSRTDFTLTINPVEADDVATYYCQQSNEDPYTFGGGTKLEIKR
B6 showed a dissociation constant relative to whole antibody (defined as one) (relative to KD of whole F1232-37-2) [4] of 0.6.

B7: F1249-30-1 (antibody, V domains shown)
VH: QVQLQQSGAELVRPGVSVKISCKGSGYTFTDYAMHWVKQSHAKSLEWIGVISTYYGDTSYNQKFKGKAAMTVDKSSSTAYMELARLTSDDSAIYYCARAEDYDPWFAYWGQGTLVTVSA
VL: DIVLTQSPASLAVSLGQRATISCRASESVDSYGNSFMHWYQQKPGQPPKLLIYRASNLESGIPARFSGSGSRTDFTLTINPVEADDVATYYCQQSDEDPLTFGAGTKLELKR
For B7, the KD (Relative value) against F1232-37-2 (relative to KD of F1232-37-2) [1] was 0.347 and the absorbance [2] was > 2 od.

B8: F1249-24-1 (antibody, V domains shown)
VH: QVQLQQSGAELVRPGVSVKISCKGSGYTFTDYAMHWVKQSHAKSLEWIGVISTYYGDTSYNQKFKGKATMTVDKSSSTAYMELARLTSEDSAIYYCARAEDYDPWFAYWGQGTLVTVSA
VL: DIVLTQSPASLAVSLGQRATISCRASESVDSYGNSFMHWYQQKPGQPPKLLIYRASNLESGIPARFSGSGSRTDFTLTINPVEADDVATYYCQQSDEDPLTFGAGTKLELKR
In the case of B8, the KD (Relative value) against F1232-37-2 (relative to KD of F1232-37-2) [1] is reported as 0.00821 and the absorbance [2] is reported as > 2 od.

B9: F1246-1-1 (antibody, V domains shown)
VH: EVQLVESGGDLVKPGGSLKLSCAASGFTFSSYGMSWVRQTPDKRLEWVATISNGGTYTYYPDSVKGRFTISRDNAKNTLYLQMSSLKSDDTAMYYCGRLRDYYAMDYWGQGTSVTVSS
VL: DIVLTQSPASLAVSLGQRATISCRASESVDSYGNSFMHWYQQKPGQPPKLLIYRASNLESGIPARFSGSGSRTDFTLTINPVEADDVATYYCQQSNEDPWTFGGGTKLEIKR
B9 gave an absorbance [3] of 1 to 2 od and a KD (Relative value) against F1232-37-2 (relative to KD of F1232-37-2) [1] of 0.884.

B10: F1249-20-1 (antibody, V domains shown)
VH: QVQLQQSGAELVRPGVSVKISCKGSGYTFTDYAMHWVKQSHAKSLEWIGVISTYYGDTSYNQKFKGKATMTVDKSSSTAYMELARLTSEDSAIYYCARAEDYDPWFAYWGQGTLVTVSA
VL: DIVLTQSPASLAVSLGQRATISCRASESVDSYGNSFMYWYQQKPGQPPKLLIYRASNLESGIPARFSGSGSRTDFTLTINPVEADDVATYYCQQSDEDPLTFGAGTKLELKR
B10 was tested, and the KD (Relative value) against F1232-37-2 (relative to KD of F1232-37-2) [1] was 0.00205 and the absorbance [2] was > 2 od.

B11: F1232-37-2 (antibody, V domains shown)
VH: VQLQQSGPELVRPGESVKISCKGSGYTFTDYAIHWVKLSHAKSLEWIGVISIYYDDTNYNQKFKGKATMTVDKSSSTAYLELARLTSEDSAIYYCARRRDSSGPYAMDYWGQGTSVTVSS
VL: DIVLTQSPASLAVSLGQRATISCRASESVDSYGNSFMHWYQQKPGQPPKLLIYRASNLESGIPARFSGSGSRTDFTLTINPVEADDVATYYCQQSNEDPYTFGGGTKLEIKR
In the case of B11, the absorbance (ELISA) [5] is reported as 0.137.

B12: F1251-1-1 (antibody, V domains shown)
VH: QVNLLQSGAALVKPGASVKLSCKASGYTFTDYYIHWVKQSHGKSLEWIGYINPNSGYTNYNEKFKSKATLTVDKSTNTAYMELSRLTSEDSATYYCTRCNSGYGDWFAYWGQGTLLTVSS
VL: DIQMTQSPPVLSASVGDRVTLSCKASQNINKNLDWYQQKHGEAPKLLIYYTNNLQTDIPSRFSGSGSGTDYTLTISSLQPEDVATFYCYQYNSGPGTFGAGTKLELKR
In the case of B12, the absorbance [6] is reported as 0.5 to 1 od and the KD (Relative value) against F1232-37-2 (relative to KD of F1232-37-2) [1] is reported as 7.9.

B13: F1257-3-1 (antibody, V domains shown)
VH: QVTLKESGPGMLQPSKTLSLTCSFSGFSLSTSGMVVSWIRQPSGKSLEWLAAIDWDGDKYYNPSLKSRLTVSKDTSNTQVFLKISSVDIADTATYYCARTPYYGYKEAYYFDYWGQGVKVTVSS
VL: DIQMTQSPASLSASLEEIVTITCKASRAIDDYLSWYQQKPGKSPQLLIYDATSLADGVPSRFSGSRSGTQYSLKISRPQVDDSGIYYCLQSYSTPWTFGGGTKLDLKR
B13 was tested, and the KD (Relative value) against F1232-37-2 (relative to KD of F1232-37-2) [1] was 0.00298 and the absorbance [2] was > 2 od.

B14: F1245-7-1 (antibody, V domains shown)
VH: QVQLQQPGAELVKPGASVKLSCKASGYTFTSYWMHWVKQRPGQGLEWIGMIHPNSGSTNYNEKFKSKATLTVDKSSSTAYMQLSSLTSEDSAVYYCASPVTAVVEYYFDYWGQGTTLTVSS
VL: SIVMTQTPKFLLVSAGDRVTITCKASQSVSNDVAWYQQKPGQSPKLLIYYASNRYTGVPDRFTGSGYGTDFTFTISTVQAEDLAVYFCQQDYSSLTFGSGTKLEIKR
B14 showed an absorbance [3] of 1 to 2 od and a KD (Relative value) against F1232-37-2 (relative to KD of F1232-37-2) [1] of 0.00293.
